B1: p67^phox(1–212) [not stated] / Nox2 peptide 24 (357–371), dithiol form [modified: biotin on the N-terminus; C-terminal amide; cysteines 369 and 371 in the dithiol form; biotin on the N-terminus; C-terminal … (parent)
chain 1: MSLVEAISLWNEGVLAADKKDWKGALDAFSAVQDPHSRICFNIGCMYTILKNMTEAEKAFTRSINRDKHLAVAYFQRGMLYYQTEKYDLAIKDLKEALIQLRGNQLIDYKILGLQFKLFACEVLYNIAFMYAKKEEWKKAEEQLALATSMKSEPRHSKIDKAMECVWKQKLYEPVVIPVGKLFRPNERQVAQLAKKDYLGKATVVASVVDQD
chain 2: SGSGIVGDWTEGLFNACGC

Variants of: B1
Experiment: peptide-protein binding assay (surface-attached biotinylated peptide, protein in solution, kinetic TMB oxidation read-out)
Conditions: with Nox2 peptide 24 (357–371), 10 min kinetic experiment, read off a plot

Row | response (Absorbance (650 nm) x 1000/min) | Variant
1 | 10 | chain 1 MSLVEAISLWNEGVLAADKKDWKGALDAFSAVQDPHSRISFNIGSMYTILKNMTEAEKAFTRSINRDKHLAVAYFQRGMLYYQTEKYDLAIKDLKEALIQLRGNQLIDYKILGLQFKLFASEVLYNIAFMYAKKEEWKKAEEQLALATSMKSEPRHSKIDKAMESVWKQKLYEPVVIPVGKLFRPNERQVAQLAKKDYLGKATVVASVVDQD [chain 1 C40S C45S C121S C165S]
